Results from patent publication US20100330072A1 (published 2010).

T1: recombinant mature myostatin (human, produced in E. coli) (human, UniProt O14793 267-375)
T1 construct: mature; also called GDF-8
T1 sequence (looked up): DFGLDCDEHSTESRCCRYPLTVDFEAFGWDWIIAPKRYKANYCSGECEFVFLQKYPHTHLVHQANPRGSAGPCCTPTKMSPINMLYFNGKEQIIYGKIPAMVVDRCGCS


Molecular target: T1, recombinant mature myostatin (human, …)
Experiment: KinExA solution equilibrium assay or BIAcore (table does not say which)

| Kd [pM] | Binder |
| --- | --- |
| 12 | 2x mTN8-19-7 peptibody (Fc fusion, Fc dimer; also called 2×mTN8-19-7) GGGGGAQLADHGQCIRWPWMCPPEGWELEGSGSATGGSGSTASSGSGSATGLADHGQCIRWPWMCPPEGWELE |
| 6 | 2x mTN8-19-21 peptibody (Fc fusion, Fc dimer) GGGGGAQSEYQGLCTRWPWMCPPQGWKLEGSGSATGGSGSTASSGSGSATGSEYQGLCTRWPWMCPPQGWKLE |
| 3 | 2x mTN8-19-33 peptibody (Fc fusion, Fc dimer; also called 2×mTN8-19-33) GGGGGAQPESQGHCTRWPWMCPPQGWGLEGSGSATGGSGSTASSGSGSATGPESQGHCTRWPWMCPPQGWGLE |
